Where two headings read alike, the source gives them in different places. Blank lines part the entries; values can stand above or below the binder they belong to.
How the values were obtained:
[1] = target: T1, human OX40 expressed on CHO cells (human, UniProt P43489 29-277); assay: FACS on CHO cells expressing human OX40 (MFI)
T1 construct: whole, on cells
T1 sequence (looked up): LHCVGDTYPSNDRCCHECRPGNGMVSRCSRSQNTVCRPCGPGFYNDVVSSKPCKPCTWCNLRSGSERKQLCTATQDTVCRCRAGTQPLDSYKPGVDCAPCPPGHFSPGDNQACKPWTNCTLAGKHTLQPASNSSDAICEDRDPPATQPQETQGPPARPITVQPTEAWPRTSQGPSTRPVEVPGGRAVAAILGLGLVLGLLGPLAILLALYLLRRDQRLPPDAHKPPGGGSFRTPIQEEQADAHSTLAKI
Method: (§1) Anti-OX40/CD137 bi-specific antibodies were analyzed by FACS for their binding properties to human OX40 and/or human CD137 expressed on CHO cells. Briefly, cultured cells were harvested, counted and cell viability was evaluated using the Trypan Blue exclusion method. Viable cells were then adjusted to 2×10⁶ cells per mL in PBS containing 2% BSA. 100 μL of this cell suspension were further aliquoted per well into a V-bottom 96-well plate. […] After incubation for 2 hours at 4° C., cells were centrifuged (3 min, 1000×g), washed with 250 μL/well BSA-containing FACS Stain Buffer, resuspended and incubated for an additional 1 hour at 4° C. with 100 μL/well fluorochrome-conjugated anti-IgG antibody for detection of the bisepecific antibody. Cells were then washed with 250 μL/well BSA-containing FACS Stain Buffer, resuspended in 100 μL/well FACS Stain Buffer, acquired and analyzed using a FACS machine. Binding of the bispecific antibodies to human OX40 or human CD137 expressing CHO cells were evaluated and the mean fluorescence intensity is plotted in histograms or dot plots.

[2] = target: T2, human CD137 expressed on cells (human, UniProt Q07011 24-255); assay: FACS on CHO cells expressing human CD137 (MFI)
T2 construct: whole, on cells; also called 4-1BB; TNFRSF9
Method: as §1

[3] = target: T2, human CD137 expressed on cells; assay: FACS on CHO cells expressing human CD137 (MFI); remark: listed apart in the source
Method: as §1

T2 sequence (Q07011 24-255): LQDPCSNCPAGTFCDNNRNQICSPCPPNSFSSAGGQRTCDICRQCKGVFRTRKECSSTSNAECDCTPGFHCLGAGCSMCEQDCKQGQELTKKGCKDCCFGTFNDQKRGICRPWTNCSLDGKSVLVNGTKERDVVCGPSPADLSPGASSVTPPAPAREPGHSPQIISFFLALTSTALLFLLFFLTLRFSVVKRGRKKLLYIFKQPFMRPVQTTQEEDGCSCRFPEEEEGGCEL

- EC50 (read off the curve) [1]: ~0.9 µg/mL
- EC50 (read off the curve) [2]: ~0.2 µg/mL
B1: Ly764 (bispecific antibody, human IgG1, kappa)
heavy: QVQLVQSGAEVKKPGASVKVSCKASGYTFAGFEMHWVRQAPGQGLEWMGAIDPKTGGTDYNQKFKDRVTMTRDTSISTAYMELSRLRSDDTAVYYCARDLGYFDVWGQGTLVTVSSASTKGPSVFPLAPSSKSTSGGTAALGCLVKDYFPEPVTVSWNSGALTSGVHTFPAVLQSSGLYSLSSVVTVPSSSLGTQTYICNVNHKPSNTKVDKKVEPKSCDKTHTCPPCPAPELLGPSVFLFPPKPKDTLMISRTPEVTCVVVDVSHEDPEVKFNWYVDGVEVHNAKTKPREEQYNSTYRVVSVLTVLHQDWLNGKEYKCKVSNKALPAPIEKTISKAKGQPREPQVYTLPPSREEMTKNQVSLTCLVKGFYPSDIAVEWESNGQPENNYKTTPPVLDSDGSFFLYSKLTVDKSRWQQGNVFSCSVMHEALHNHYTQKSLSLSPGK
light: DIQMTQSPSSLSASVGDRVTITCRASQDIRSNLNWYQQKPGGAVKLLIYYTSRLHSGVPSRFSGSGSGTDYTLTISSLQPEDFATYFCQQSEKLPRTFGGGTKVEIRRTVAAPSVFIFPPSDEQLKSGTASVVCLLNNFYPREAKVQWKVDNALQSGNSQESVTEQDSKDSTYSLSSTLTLSKADYEKHKVYACEVTHQGLSSPVTKSFNRGECGGGGSGGGGSGGGGSGGGGSDIQMTQSPSSLSASVGDRVTITCRASQDISNYLNWYQQKPGKAPKLLIYYTSRLRSGVPSRFSGSGSGTDFTLTISSLQPEDFATYYCQQGHTLPPTFGQGTKVEIKGGGGSGGGGSGGGGSGGGGSEVQLVQSGAEVKKPGASVKVSCKASGYTFTDSYMSWVRQAPGQGLEWIGDMYPDNGDSSYNQKFRERVTITRDTSTSTAYLELSSLRSEDTAVYYCVLAPRWYFSVWGQGTLVTVSS
notes: Anti-OX40/CD137: Ly1630 heavy chain

- binding result [1]: binds
- EC50 (read off the curve) [2]: ~0.2 µg/mL
B2: Ly765 (bispecific antibody, human IgG1, kappa)
heavy: B1 heavy
light: DIQMTQSPSSLSASVGDRVTITCRASQDIRSNLNWYQQKPGGAVKLLIYYTSRLHSGVPSRFSGSGSGTDYTLTISSLQPEDFATYFCQQSEKLPRTFGGGTKVEIRRTVAAPSVFIFPPSDEQLKSGTASVVCLLNNFYPREAKVQWKVDNALQSGNSQESVTEQDSKDSTYSLSSTLTLSKADYEKHKVYACEVTHQGLSSPVTKSFNRGECGGGGSGGGGSGGGGSGGGGSEVQLVQSGAEVKKPGASVKVSCKASGYTFTDSYMSWVRQAPGQGLEWIGDMYPDNGDSSYNQKFRERVTITRDTSTSTAYLELSSLRSEDTAVYYCVLAPRWYFSVWGQGTLVTVSSGGGGSGGGGSGGGGSGGGGSDIQMTQSPSSLSASVGDRVTITCRASQDISNYLNWYQQKPGKAPKLLIYYTSRLRSGVPSRFSGSGSGTDFTLTISSLQPEDFATYYCQQGHTLPPTFGQGTKVEIK
notes: as for B1

- EC50 (read off the curve) [3]: ~0.2 µg/mL
- EC50 (read off the curve) [1]: ~0.4 µg/mL
B3: Ly766 (bispecific antibody, human IgG1, kappa)
heavy: EVQLVQSGAEVKKPGASVKVSCKASGYTFTDSYMSWVRQAPGQGLEWIGDMYPDNGDSSYNQKFRERVTITRDTSTSTAYLELSSLRSEDTAVYYCVLAPRWYFSVWGQGTLVTVSSASTKGPSVFPLAPSSKSTSGGTAALGCLVKDYFPEPVTVSWNSGALTSGVHTFPAVLQSSGLYSLSSVVTVPSSSLGTQTYICNVNHKPSNTKVDKKVEPKSCDKTHTCPPCPAPELLGPSVFLFPPKPKDTLMISRTPEVTCVVVDVSHEDPEVKFNWYVDGVEVHNAKTKPREEQYNSTYRVVSVLTVLHQDWLNGKEYKCKVSNKALPAPIEKTISKAKGQPREPQVYTLPPSREEMTKNQVSLTCLVKGFYPSDIAVEWESNGQPENNYKTTPPVLDSDGSFFLYSKLTVDKSRWQQGNVFSCSVMHEALHNHYTQKSLSLSPGGGGGSGGGGSGGGGSGGGGSDIQMTQSPSSLSASVGDRVTITCRASQDIRSNLNWYQQKPGGAVKLLIYYTSRLHSGVPSRFSGSGSGTDYTLTISSLQPEDFATYFCQQSEKLPRTFGGGTKVEIRGGGGSGGGGSGGGGSGGGGSQVQLVQSGAEVKKPGASVKVSCKASGYTFAGFEMHWVRQAPGQGLEWMGAIDPKTGGTDYNQKFKDRVTMTRDTSISTAYMELSRLRSDDTAVYYCARDLGYFDVWGQGTLVTVSS
light: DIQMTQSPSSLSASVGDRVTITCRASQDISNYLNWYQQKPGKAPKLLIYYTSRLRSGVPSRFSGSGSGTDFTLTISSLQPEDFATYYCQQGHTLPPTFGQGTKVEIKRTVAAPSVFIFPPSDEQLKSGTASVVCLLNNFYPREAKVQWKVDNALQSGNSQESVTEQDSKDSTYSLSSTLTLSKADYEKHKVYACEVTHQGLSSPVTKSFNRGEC
notes: Anti-OX40/CD137: Ly598-derived heavy chain fused to Ly1630 scFv (VL-VH); Ly598 light chain
